Results published in publication PMC4140852 (PLoS Pathogens, 2014).

Biological target: the molecule itself
Assay: cross-linking

Row | Protein | stoichiometry N
1 | rAPRc_(105–231), activation product derived from rAPRc_(99–231) by auto-processing (enzyme) YKWSTEVGEIIIARNRDGHFYINAFVNNVKIKFMVDTGASDIALTKEDAQKLGFDLTKLKYTRTYLTANGENKAAPITLNSVVIGKEFKNIKGHVGLGDLDISLLGMSLLERFKGFRIDKDLLILNY | 2
2 | rAPRc_(99–231), intermediate of activation of RC1339/APRc (Aspartic Protease from Rickettsia conorii) soluble catalytic domain, C-terminal His-tag (domain or fragment, also called rAPRc99–231-His; APRc_(99–231)His; not shown: His6, C-terminal, kept) SALIPSYKWSTEVGEIIIARNRDGHFYINAFVNNVKIKFMVDTGASDIALTKEDAQKLGFDLTKLKYTRTYLTANGENKAAPITLNSVVIGKEFKNIKGHVGLGDLDISLLGMSLLERFKGFRIDKDLLILNY | 2
